Measured values: article PMC4829898

Target: recombinant soluble trimeric hemagglutinin (triHA) (influenza A virus A/Belgium/2009 (H1N1, 2009 pandemic) | Saccharomyces cerevisiae)
Assay: SEC

“recombinant soluble trimeric hemagglutinin (triHA)” gave a stoichiometry N of 3.
